Results from paper PMC3001049.
Like-named read-outs stand apart in the source and are kept apart here.

Assays:
XPA [1] = target: T1, XPA (human, UniProt P23025 1-273); experiment: photocrosslinking
XPA [2] = target: T1, XPA; experiment: photocrosslinking; remark: listed apart in the source

T1 sequence (P23025 whole entry): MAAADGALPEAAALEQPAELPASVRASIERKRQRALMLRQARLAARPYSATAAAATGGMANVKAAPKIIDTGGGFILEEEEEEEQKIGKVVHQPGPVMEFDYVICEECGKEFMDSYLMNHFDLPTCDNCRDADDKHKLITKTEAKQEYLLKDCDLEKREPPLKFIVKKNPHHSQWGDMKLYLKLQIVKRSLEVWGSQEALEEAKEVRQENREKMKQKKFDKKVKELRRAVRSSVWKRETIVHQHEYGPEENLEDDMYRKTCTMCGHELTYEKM

Row | Binder | binding result (XPA [1]) | binding result (XPA [2])
1 | damaged duplex Fg/4 (dsDNA, strand 1 T23 = Flu-dUMP; strand 2 T30 = 5-iodo-dUMP) DNA 1: GTCGTTCGGAAGACCCTGACGTTGCCCAACTTAATCGCCTCGCCATAG DNA 2: CTATGGCGAGGCGATTAAGTTGGGCAACGTCAGGGTCTTCCGAACGAC | binds | –
2 | damaged duplex FI3/N (dsDNA, strand 1 T17 = 5-iodo-dUMP, T22 = Flu-dUMP) DNA 1: GTCGTTCGGAAGACCCTGACGTTACCCAACTTAATCGCCTCGCCATAG DNA 2: CTATGGCGAGGCGATTAAGTTGGGTAACGTCAGGGTCTTCCGAACGAC | – | binds
